Results from paper PMC11005422.

How the values were obtained:
[1] = molecular target: shClpP1 alone (sample of Fig. S1A) (Streptomyces hawaiiensis NRRL 15010); assay: not stated; Fig. S1A (not shown): purified proteins in solution; a shClpP1 sample was also put on cryo-EM grids
[2] = molecular target: ClpC1 (NTD residues 1-156 removed, E284A/E622A/F440A) (Streptomyces hawaiiensis NRRL 15010); assay: cryo-EM structure; ClpC1 added to the pre-formed shClpP1P2 complex with fluorescein-labeled casein and ATP; conformations A (2.94 Å) and B (3.0 Å), C1
[3] = molecular target: shClpP1 (first 29 residues removed, S113A) (Streptomyces hawaiiensis NRRL 15010); assay: cryo-EM structure; apo shClpP1P2, C7 symmetry imposed, 2.34 Å (free shClpP1P2 particles of the ClpC1 sample; a second reconstruction at 2.88 Å from the shClpP1P2 sample); SEC buffer 20 mM HEPES, 150 mM KCl, 5% glycerol, pH 7.5
[4] = molecular target: shClpP2 (first 49 residues removed, S131A) (Streptomyces hawaiiensis NRRL 15010); assay: as above

shClpP1 alone (sample of Fig. S1A) (enzyme)
stoichiometry N [1]: 7

ClpC1 (NTD residues 1-156 removed, E284A/E622A/F440A) (enzyme)
stoichiometry N [2]: 6

shClpP1 (first 29 residues removed, S113A) (enzyme)
stoichiometry N [3]: 7

shClpP2 (first 49 residues removed, S131A) (enzyme)
stoichiometry N [4]: 7
